Here are results for eight molecules from patent publication US20240385190A1 (EISAI R AND D MANAGEMENT, published 2024).

B1: KPEP11_20 (antibody, V domains shown)
VH: QSLEESGGRLVTPGTPLTLTCTVSGFSLNNYYMNWVRQAPGKGLEWIGIIYPDIDTTDYASWVKGRFTISKTSTTVDLKITSPTTEDTATYFCARSDIDYYTTRLDLWGQGTLVTISS
VL: AQVLTQTPSPVSAAVGGTVSINCQSSPSVYNNNWLSWFQQKPGQPPKLLIYGASTLASGVPSRFKGSGSGTQFTLTISDVQCDDAATYYCAGGYDSNSDTAFGGGTELEILG
notes: Rabbit IgG; also called anti-human EphA4 rabbit monoclonal antibody KPEP11_20
B2: KPEP11_12 (antibody, V domains shown)
VH: QSLEESGGRLVTPGTPLTLTCTVSGFSLSSYHMSWVRQAPGKGLEWIGIIYRSGNTYYANWAKGRFTISKTSTTVDLKITSPTTEDTATYFCARESSTFYGMDLWGPGTLVTVSS
VL: YVMMTQTPSSVSAAVGGTVTINCQASQSVYGNNELAWYQQKPGQRPKLLIYRASTLASGVPSRFKGSGSGTEFTLTISDLECADAATYYCLGYKSDDYTFGGGTKVEIKG
notes: Rabbit IgG; also called anti-human EphA4 rabbit monoclonal antibody KPEP11_12
B3: KPEP11_13 (antibody, V domains shown)
VH: B2 VH
VL: B2 VL
notes: Rabbit IgG; also called anti-human EphA4 rabbit monoclonal antibody KPEP11_13
B4: KPEP11_09 (antibody, V domains shown)
VH: B2 VH with L3V, Y58S
VL: B2 VL
notes: Rabbit IgG; also called anti-human EphA4 rabbit monoclonal antibody KPEP11_09
B5: KPEP11_01 (antibody, V domains shown)
VH: B2 VH with L3V, Y58S
VL: B2 VL
notes: also called anti-human EphA4 rabbit monoclonal antibody KPEP11_01
B6: KPEP11_02 (antibody, V domains shown)
VH: QSLEESGGRLVTPGGSLTLTCTVSGIDLSSYAMSWVRQAPEKGLEWIGFINNYGTYYASWAKGRFTISKTSTTVDLKVTSLTTEDTATYFCVRGGRSPNYDIVSGDIWGPGTLVTVSS
VL: YVMMTQTPSSVSEPVGGTVTIKCQASQNIYNSLAWYQQKPGQRPKLLIADASELASGVPQRFSGSGSGTQFTLTISDLECADAATYYCQSSSAGDSYVGGFGGGTEVVVKG
notes: Rabbit IgG; also called anti-human EphA4 rabbit monoclonal antibody KPEP11_02
B7: KPEP11_07 (antibody, V domains shown)
VH: QEQLKESGGRLVTPGGSLTLTCTVSGIDLSSYAMSWVRQAPEKGLEWIGFINMYGTYYASWAKGRFTISRTSTTVDLKVTSLTTEDTATYFCVRGGRSPDYDIVSGDIWGPGTLVTVSS
VL: B6 VL
notes: Rabbit IgG; also called anti-human EphA4 rabbit monoclonal antibody KPEP11_07
B8: KPEP11_05 (antibody, V domains shown)
VH: B6 VH
VL: B6 VL
notes: Rabbit IgG; also called anti-human EphA4 rabbit monoclonal antibody KPEP11_05

Changes are numbered by the printed parent chain.

For the first assay, the target named is T1, SEAP.
T1 construct: negative control antigen; also called SEAP-His protein
The experiment in a line: ELISA. The method, then: (§1) For the anti-human EphA4 monoclonal antibodies produced in Example 1, evaluation of binding activity to various EphA4 was performed according to the following steps. Mouse anti-6-His antibodies (R&D) were coated on the wells of a 96-well plate (Thermo […]). After incubating at room temperature for 1 hour, the wells were blocked at 4° C. overnight with 1% Block Ace (KAC). After washing three times with 0.02% Tween 20/PBS, the wells were seeded with mouse EphA4 extracellular domain-SEAP-His protein, rat EphA4 extracellular domain-SEAP-His protein, rabbit EphA4 extracellular domain-SEAP-His protein, monkey EphA4 extracellular domain-SEAP-His protein, human EphA4 extracellular domain-SEAP-His protein, or SEAP-His protein (final concentration 1 nM), and this was incubated at room temperature for 1 hour. After washing three times, anti-human EphA4 rabbit monoclonal antibody (10 pg/mL) was added, and this was incubated at room temperature for about 1 hour. After washing three times, horseradish peroxidase labeled goat anti-rabbit IgG polyclonal antibody (abcam) was added, and this was incubated at room temperature for 1 hour. After washing three times, TMBZ (3,3′,5,5′-tetramethylbenzidine, KPL) solution was added to the wells, and this was incubated for 3 minutes at room temperature. Equal amounts of quenching solution (2 N H₂SO₄, FUJIFILM Wako) were added to the wells, and absorbance at 450 nm and 650 nm were read with a microplate reader (Thermo […]).
For the molecule B1, the absorbance is 0.067.
For the molecule B2, the absorbance was found to be 0.067.
B3 returned an absorbance of 0.099.
For the molecule B4, the absorbance amounted to 0.07.
In turn, B5 yielded an absorbance of 0.052.
On to B6, for which the absorbance is 0.071.
In the case of B7, the absorbance stood at 0.05.
On the same count and under the same terms, as for B8, the figure is 0.043.

Another assay deals with T2, monkey EphA4 extracellular domain-SEAP-His protein (monkey).
T2 construct: the fusion as a whole has none; not shown: SEAP-His part
T2 sequence (chain, as listed by the source): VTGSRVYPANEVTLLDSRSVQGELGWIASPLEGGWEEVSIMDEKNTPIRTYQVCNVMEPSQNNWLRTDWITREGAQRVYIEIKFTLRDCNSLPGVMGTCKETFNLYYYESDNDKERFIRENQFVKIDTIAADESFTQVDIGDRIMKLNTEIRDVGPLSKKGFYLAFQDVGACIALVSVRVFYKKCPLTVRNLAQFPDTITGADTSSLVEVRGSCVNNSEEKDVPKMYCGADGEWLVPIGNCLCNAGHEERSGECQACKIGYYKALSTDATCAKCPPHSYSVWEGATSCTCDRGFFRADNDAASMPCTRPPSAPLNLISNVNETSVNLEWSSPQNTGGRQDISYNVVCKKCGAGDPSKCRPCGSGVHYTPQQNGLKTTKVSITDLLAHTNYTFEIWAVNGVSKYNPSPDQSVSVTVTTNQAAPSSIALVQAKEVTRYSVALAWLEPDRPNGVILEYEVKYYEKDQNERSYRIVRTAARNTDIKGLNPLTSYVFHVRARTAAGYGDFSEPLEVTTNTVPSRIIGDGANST
The experiment in a line: ELISA. The method, then:
as §1
Turning to B1, the absorbance turned out to be 1.15.
The same measure, in the same setting: as for B2, the figure is 1.19; as for B3, 1.17; as for B4, 1.15.
In turn, B5 registered an absorbance of 1.18.
B6 yielded an absorbance of 1.2.
In the case of B7, the absorbance was 1.18.
B8 yielded an absorbance of 1.24.

The target of the next assay is human EphA4 extracellular domain-SEAP-His protein (human). The experiment in a line: ELISA. The method, then: as §1
human EphA4 extracellular domain-SEAP-His protein (human), sequence (chain, as listed by the source limits assumed): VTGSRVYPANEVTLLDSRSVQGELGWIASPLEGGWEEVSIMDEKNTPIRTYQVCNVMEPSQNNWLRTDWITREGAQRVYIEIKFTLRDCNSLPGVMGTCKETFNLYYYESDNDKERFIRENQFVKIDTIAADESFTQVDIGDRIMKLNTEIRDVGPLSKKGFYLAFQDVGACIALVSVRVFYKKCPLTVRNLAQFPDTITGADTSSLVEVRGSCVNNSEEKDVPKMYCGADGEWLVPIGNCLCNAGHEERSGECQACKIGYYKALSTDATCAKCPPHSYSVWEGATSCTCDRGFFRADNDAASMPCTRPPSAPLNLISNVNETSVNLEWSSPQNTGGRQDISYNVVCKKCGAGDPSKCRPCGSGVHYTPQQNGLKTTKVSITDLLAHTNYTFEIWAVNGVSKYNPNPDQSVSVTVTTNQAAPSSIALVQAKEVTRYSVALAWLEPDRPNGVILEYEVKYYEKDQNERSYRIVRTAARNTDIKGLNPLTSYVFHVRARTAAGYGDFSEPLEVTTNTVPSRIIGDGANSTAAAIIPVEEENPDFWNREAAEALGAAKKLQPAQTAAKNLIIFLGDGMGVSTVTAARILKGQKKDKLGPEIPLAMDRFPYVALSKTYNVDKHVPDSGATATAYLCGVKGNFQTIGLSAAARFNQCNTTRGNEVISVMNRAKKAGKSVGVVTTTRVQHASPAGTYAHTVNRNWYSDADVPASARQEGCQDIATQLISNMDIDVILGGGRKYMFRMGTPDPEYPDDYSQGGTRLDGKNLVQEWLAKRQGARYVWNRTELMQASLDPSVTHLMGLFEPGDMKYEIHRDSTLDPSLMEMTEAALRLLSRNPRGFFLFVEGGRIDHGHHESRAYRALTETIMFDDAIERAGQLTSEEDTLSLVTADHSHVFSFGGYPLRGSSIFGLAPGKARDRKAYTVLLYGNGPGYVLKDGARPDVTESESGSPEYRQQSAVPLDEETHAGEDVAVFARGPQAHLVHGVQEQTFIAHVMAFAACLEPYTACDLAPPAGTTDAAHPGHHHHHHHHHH
As to B1, the absorbance was 1.16.
B2 displayed an absorbance of 1.22.
With B3, the absorbance came to 1.18.
The molecule B4 showed an absorbance of 1.14.
Molecule B5 showed an absorbance of 1.21.
Turning to B6, the absorbance is 1.25.
Take B7: the absorbance amounted to 1.22.

In the next assay the target is T3, Rat.
T3 construct: also called rat EphA4 extracellular domain-SEAP-His protein
The experiment in a line: ELISA. As to the method:
as §1
In the case of B1, the absorbance amounted to 0.062.
B2 had an absorbance of 0.054.
Take B3: the absorbance came out at 0.086.
Same read-out and setting: as for B4, the figure is 0.064; as for B5, 0.042.
The molecule B7 registered an absorbance of 0.044.
In the case of B8, the absorbance is 0.043.

The target of another assay is T4, Mouse.
T4 construct: also called mouse EphA4 extracellular domain-SEAP-His protein
The experiment in a line: ELISA. The method, then: as §1
In turn, B1 returned an absorbance of 0.052.
For the molecule B2, the absorbance turned out to be 0.059.
For B3, the absorbance was 0.082.
Take B4: the absorbance was found to be 0.079.
B5 gave an absorbance of 0.049.
Molecule B6 displayed an absorbance of 0.048.
Consider B7, for which the absorbance is 0.045.
The molecule B8 displayed an absorbance of 0.045.

For a further assay, the target named is T5, Rabbit.
T5 construct: also called rabbit EphA4 extracellular domain-SEAP-His protein
The experiment in a line: ELISA. As to the method:
as §1
In turn, B1 had an absorbance of 0.046.
Take B2: the absorbance was 0.055.
Molecule B3 yielded an absorbance of 0.083.
Molecule B5 yielded an absorbance of 0.045.
Same read-out and setting: as for B6, the figure is 0.04.
With B8, the absorbance is 0.035.

In a further assay the target is MBP. Kind of assay: ELISA. The method, then: (§2) For the anti-human EphA4 monoclonal antibodies produced in Example 1, evaluation of binding activity to various EphA4 was performed according to the following steps. Mouse anti-6-His antibodies (R&D) were coated on the wells of a 96-well plate (Thermo […]). After incubating at room temperature for 1 hour, the wells were blocked at room temperature for 1 hour with 1% Block Ace (KAC). After washing three times with 0.02% Tween 20/PBS, the wells were seeded with human EphA4 extracellular domain-MBP-His protein, human EphA4 ligand binding domain-MBP-His protein, human EphA4 fibronectin III-type domain 1-MBP-His protein, human EphA4 fibronectin III-type domain 2-MBP-His protein, or MBP-His protein (final concentration 1 nM), and this was incubated at room temperature for 1 hour. After washing three times, anti-human EphA4 rabbit monoclonal antibody (10 pg/mL) was added, and this was incubated at room temperature for 1 hour. After washing three times, horseradish peroxidase labeled goat anti-rabbit IgG polyclonal antibody (abcam) was added, and this was incubated at room temperature for 1 hour. After washing three times, TMBZ (3,3′,5,5′-tetramethylbenzidine, KPL) solution was added to the wells, and this was incubated for four and a half minutes at room temperature. Equal amounts of quenching solution (2 N H₂SO₄, FUJIFILM Wako) were added to the wells, and absorbance at 450 nm and 650 nm were read with a microplate reader (Thermo […]).
For the molecule B1, the absorbance worked out at 0.274.
Regarding B2, the absorbance amounted to 0.302.
On the same count and under the same terms, the value for B3 was 0.402; that for B4 was 0.291.
Still for that read-out and setting: the value for B5 was 0.231; that for B7 was 0.24.
Molecule B8 came in with an absorbance of 0.239.

For another assay, the target named is human EphA4 ligand binding domain-MBP-His protein (human, UniProt P54764 20-209; P0AEX9 29-392 = MBP). The experiment in a line: ELISA. The method, then: as §2
In turn, B1 registered an absorbance of 1.42.
As to B2, the absorbance is 0.283.
Same read-out and setting: as for B3, the figure is 0.348; as for B5, 0.236; as for B6, 1.32.
B7: the absorbance amounted to 1.39.
Regarding B8, the absorbance amounted to 1.32.

For the next assay, the target named is T6, human EphA4 extracellular domain-MBP-His protein (human).
T6 construct: also called human EphA4 extracellular domain (ECD); Human EphA4 extracellular domain-MBP-His 10
The experiment in a line: ELISA. As to the method: as §2
As for B1, the absorbance was 1.26.
Molecule B2 showed an absorbance of 1.29.
Molecule B3 came in with an absorbance of 1.31.
B4 displayed an absorbance of 1.24.
Still for that read-out and setting: the value for B6 was 1.35.
Still for that read-out and setting: as for B7, the figure is 1.42; as for B8, 1.43.

For the next assay, the target named is FN1. The experiment in a line: ELISA. The method, then: as §2
With B1, the absorbance was 0.207.
In the case of B2, the absorbance came out at 0.255.
For the molecule B3, the absorbance amounted to 0.318.
Molecule B4 had an absorbance of 0.24.
As to B5, the absorbance amounted to 0.228.
For B6, the absorbance amounted to 0.213.
As for B7, the absorbance worked out at 0.226.
With B8, the absorbance stood at 0.213.

A further assay concerns the target FN2. The experiment in a line: ELISA. The method, then: as §2
Consider B1, for which the absorbance was found to be 0.238.
Molecule B3 yielded an absorbance of 0.36.
The molecule B4 gave an absorbance of 0.242.
Take B5: the absorbance turned out to be 0.235.
B6 showed an absorbance of 0.227.
As to B7, the absorbance stood at 0.22.
In turn, B8 returned an absorbance of 0.225.
